The values that follow come from paper PMC10349104, “Engineering broad-spectrum inhibitors of inflammatory chemokines from subclass A3 tick evasins” (Nature Communications, 2023).

T1: EVA-AAM1001, C-terminally Avi-tagged and biotinylated (A. americanum, biotin on the AVI tag)
T1 chain: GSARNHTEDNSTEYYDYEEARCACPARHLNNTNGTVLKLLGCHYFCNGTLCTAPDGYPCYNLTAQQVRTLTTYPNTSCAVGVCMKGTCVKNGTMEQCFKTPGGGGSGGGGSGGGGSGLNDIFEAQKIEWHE

T2: EVA-4 (UniProt P0C8E9 24-127)
T2 sequence (looked up): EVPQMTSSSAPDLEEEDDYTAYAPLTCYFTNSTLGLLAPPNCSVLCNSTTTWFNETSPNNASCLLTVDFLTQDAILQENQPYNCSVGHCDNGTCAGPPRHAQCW

B1: CCL7(Y13A) (ligand)
chain: not shown
notes: source: E. coli Rosetta-gami 2 (DE3), purified (His-Trap, SEC, RP-HPLC)
B2: CCL11(F11A) (ligand)
chain: not shown
notes: also called CC + 1 residue-mutated CCL11; source: E. coli Rosetta-gami 2 (DE3), purified (His-Trap, SEC, RP-HPLC)
B3: CCL17 (ligand, human, UniProt Q92583 24-94, looked up)
chain: ARGTNVGRECCLEYFKGAIPLRKLKTWYQTSEDCSRDAIVFVTVQGRAICSDPNNKRVKNAVKYLQSLERS
notes: as for B1
B4: CCL5 (ligand, human, UniProt P13501 24-91, looked up)
chain: SPYSSDTTPCCFAYIARPLPRAHIKEYFYTSGKCSNPAVVFVTRKNRQVCANPEKKWVREYINSLEMS
B5: CCL26 (ligand, human, UniProt Q9Y258 24-94, looked up)
chain: TRGSDISKTCCFQYSHKPLPWTWVRSYEFTSNSCSQRAVIFTTKRGKKVCTHPRKKWVQKYISLLKTPKQL
B6: CCL8 (ligand, human, UniProt P80075 24-99, looked up)
chain: QPDSVSIPITCCFNVINRKIPIQRLESYTRITNIQCPKEAVIFKTKRGKEVCADPKERWVRDSMKHLDQIFQNLKP
B7: CCL1 (ligand, human, UniProt P22362 24-96, looked up)
chain: KSMQVPFSRCCFSFAEQEIPLRAILCYRNTSSICSNEGLIFKLKRGKEACALDTVGWVQRHRKMLRHCPSKRK
B8: CCL18 (ligand, human, UniProt P55774 21-89, looked up)
chain: AQVGTNKELCCLVYTSWQIPQKFIVDYSETSPQCPKPGVILLTKRGRQICADPNKKWVQKYISDLKLNA
B9: CCL22 (ligand, human, UniProt O00626 25-93, looked up)
chain: GPYGANMEDSVCCRDYVRYRLPLRVVKHFYWTSDSCPRPGVVLLTFRDKEICADPRVPWVKMILNKLSQ
B10: CCL7 (ligand)
chain: not shown
notes: as for B1
B11: CCL24 (ligand, human, UniProt O00175 27-119, looked up)
chain: VVIPSPCCMFFVSKRIPENRVVSYQLSSRSTCLKAGVIFTTKKGQQFCGDPKQEWVQRYMKNLDAKQKKASPRARAVAVKGPVQRYPGNQTTC
B12: CCL3 (ligand, human, UniProt P10147 24-92, looked up)
chain: SLAADTPTACCFSYTSRQIPQNFIADYFETSSQCSKPGVIFLTKRSRQVCADPSEEWVQKYVSDLELSA
B13: CCL11 (ligand)
chain: not shown
notes: as for B1

Where “and” joins values, the source holds several entries; their conditions need not be identical. Equal entries are not always repeated.

One assay concerns the target T1, EVA-AAM1001, C-terminally Avi-tagged …. Description: SPR. Conditions: both partners purified.
In the case of B1, the “fold increase in affinity over wild type CCL7” value is ~10000 fold.
In the case of B2, the “fold increase in affinity over wild type CCL11” value is ~200 fold.

The target of a further assay is T2, EVA-4. Nature of the assay: not stated; Kd of EVA-4 for human chemokines, three readings (source data of Supplementary Fig. 7); method and conditions not told for EVA-4.
Settings: not given
Consider B3, for which the Kd (commonly the free concentration of one partner at which half of the binding sites on the other are occupied at equilibrium, for simple one-to-one binding) was 282 nM and 283 nM and 285 nM.
Same read-out and setting: the result for B4 reads 6.07 nM and 5.93 nM and 6.16 nM.
On the same count and under the same terms, under B5 stands 56.5 nM and 69.6 nM and 86.6 nM; under B6, 0.259 nM and 0.49 nM and 0.489 nM.
Same read-out and setting: the result for B7 reads 449 nM and 342 nM and 338 nM; that for B8, 0.346 nM and 0.451 nM and 0.45 nM; that for B9, 8.49 nM and 8.53 nM and 8.35 nM.
Turning to B10, the Kd was 0.651 nM and 0.847 nM and 0.833 nM.
The same measure, in the same setting: the result for B11 reads 53.8 nM and 54.2 nM and 56.7 nM; that for B12, 0.175 nM and 0.285 nM and 0.27 nM; that for B13, 14.1 nM and 23.5 nM and 22.7 nM.
